Assays:
[1] = test system: indicator molecule containing the cleavable sequence (GPQGIFGQ) with a terminal biotin group connected via a polyethylene glycol spacer/linker, intact
[2] = test system: fluorescence resonance energy transfer (FRET) peptide of the commercial MMP-9 activity assay kit

Sequence of active MMP-9 (Alere San Diego) (chain, as listed by the source): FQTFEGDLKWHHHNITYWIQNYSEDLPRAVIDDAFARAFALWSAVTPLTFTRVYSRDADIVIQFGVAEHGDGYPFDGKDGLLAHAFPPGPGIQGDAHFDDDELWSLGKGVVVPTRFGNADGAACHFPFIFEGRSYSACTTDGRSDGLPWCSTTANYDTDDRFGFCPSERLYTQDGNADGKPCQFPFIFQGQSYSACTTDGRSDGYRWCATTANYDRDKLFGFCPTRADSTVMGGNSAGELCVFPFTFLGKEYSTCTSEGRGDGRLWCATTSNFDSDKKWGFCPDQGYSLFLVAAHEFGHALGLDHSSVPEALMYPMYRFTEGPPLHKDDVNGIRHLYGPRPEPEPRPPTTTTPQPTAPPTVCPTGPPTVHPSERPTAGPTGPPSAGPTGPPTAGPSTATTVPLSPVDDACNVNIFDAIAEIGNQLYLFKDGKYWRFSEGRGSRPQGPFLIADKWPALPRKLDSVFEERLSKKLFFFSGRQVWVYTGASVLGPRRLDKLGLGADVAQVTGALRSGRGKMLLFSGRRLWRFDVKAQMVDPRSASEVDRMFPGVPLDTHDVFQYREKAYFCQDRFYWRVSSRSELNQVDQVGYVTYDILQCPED
Sequence of MMP10 (Enzo) (chain, as listed by the source): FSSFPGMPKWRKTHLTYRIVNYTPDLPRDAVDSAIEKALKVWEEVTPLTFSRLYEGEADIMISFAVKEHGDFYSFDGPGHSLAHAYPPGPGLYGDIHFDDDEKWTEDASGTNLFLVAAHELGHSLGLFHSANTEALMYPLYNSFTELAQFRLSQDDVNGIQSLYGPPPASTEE
Sequence of MMP8 (Enzo) (chain, as listed by the source): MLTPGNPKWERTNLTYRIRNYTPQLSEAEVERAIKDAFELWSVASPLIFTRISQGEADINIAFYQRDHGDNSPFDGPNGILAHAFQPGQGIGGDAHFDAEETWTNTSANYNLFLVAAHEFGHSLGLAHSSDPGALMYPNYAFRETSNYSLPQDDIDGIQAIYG
Sequence of MMP2 (Enzo) (chain, as listed by the source): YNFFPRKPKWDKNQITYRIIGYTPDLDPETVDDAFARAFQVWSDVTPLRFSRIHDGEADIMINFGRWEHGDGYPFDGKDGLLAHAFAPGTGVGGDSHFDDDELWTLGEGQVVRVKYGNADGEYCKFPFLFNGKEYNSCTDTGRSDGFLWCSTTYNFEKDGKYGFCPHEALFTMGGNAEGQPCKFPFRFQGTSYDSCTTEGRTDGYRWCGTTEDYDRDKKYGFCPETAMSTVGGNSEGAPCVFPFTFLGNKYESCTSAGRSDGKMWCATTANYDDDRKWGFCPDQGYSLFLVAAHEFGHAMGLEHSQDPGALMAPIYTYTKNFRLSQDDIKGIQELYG
Sequence of MMP9 (Enzo) (chain, as listed by the source): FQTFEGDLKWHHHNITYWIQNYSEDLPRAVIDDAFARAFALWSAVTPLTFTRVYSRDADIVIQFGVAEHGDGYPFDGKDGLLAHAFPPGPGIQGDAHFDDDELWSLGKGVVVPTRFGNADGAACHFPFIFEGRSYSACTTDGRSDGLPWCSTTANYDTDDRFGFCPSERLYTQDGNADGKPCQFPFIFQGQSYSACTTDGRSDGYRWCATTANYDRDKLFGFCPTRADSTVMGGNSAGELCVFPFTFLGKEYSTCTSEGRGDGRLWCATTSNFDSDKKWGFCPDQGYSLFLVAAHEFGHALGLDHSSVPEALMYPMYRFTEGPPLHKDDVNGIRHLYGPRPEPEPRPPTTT
Sequence of MMP3 (Enzo) (chain, as listed by the source): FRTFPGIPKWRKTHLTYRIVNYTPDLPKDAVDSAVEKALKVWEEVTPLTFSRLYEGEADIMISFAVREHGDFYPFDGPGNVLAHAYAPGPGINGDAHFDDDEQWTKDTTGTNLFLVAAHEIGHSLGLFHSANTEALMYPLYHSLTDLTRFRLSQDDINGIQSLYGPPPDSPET

Substance: MMP2 (Enzo)
- reader value at 0.5 µg/ml MMP (lateral flow) [1]: 1610 reader units

Substance: MMP3 (Enzo)
- reader value at 0.5 µg/ml MMP (lateral flow) [1]: 336 reader units

Substance: MMP8 (Enzo)
- reader value at 0.5 µg/ml MMP (lateral flow) [1]: 1140 reader units

Substance: MMP9 (Enzo)
- reader value at 0.5 µg/ml MMP (lateral flow) [1]: 3840 reader units

Substance: MMP10 (Enzo)
- reader value at 0.5 µg/ml MMP (lateral flow) [1]: 444 reader units

Substance: active MMP-9 (Alere San Diego)
- Reference assay read-out at 0 ng/ml MMP9 (blank) [2]: 3820
- Reference assay read-out at 3.90625 ng/ml MMP9 [2]: 7600
- Reference assay read-out at 7.8125 ng/ml MMP9 [2]: 13100
- Reference assay read-out at 15.625 ng/ml MMP9 [2]: 31300
- Reference assay read-out at 31.25 ng/ml MMP9 [2]: 62300
- Reference assay read-out at 62.5 ng/ml MMP9 [2]: 113000
- Reference assay read-out at 125 ng/ml MMP9 [2]: 163000
- Reference assay read-out at 250 ng/ml MMP9 [2]: 204000
- OD405 at 0.39 ng/ml MMP9 (ELISA, streptavidin plate, CF1522-AP) [1]: 0.14 OD405
- OD405 at 0.78 ng/ml MMP9 (ELISA, streptavidin plate, CF1522-AP) [1]: 0.14 OD405
- OD405 at 1.56 ng/ml MMP9 (ELISA, streptavidin plate, CF1522-AP) [1]: 0.14 OD405
- OD405 at 3.13 ng/ml MMP9 (ELISA, streptavidin plate, CF1522-AP) [1]: 0.13 OD405
- OD405 at 6.25 ng/ml MMP9 (ELISA, streptavidin plate, CF1522-AP) [1]: 0.17 OD405
- OD405 at 12.50 ng/ml MMP9 (ELISA, streptavidin plate, CF1522-AP) [1]: 0.18 OD405
- OD405 at 25.00 ng/ml MMP9 (ELISA, streptavidin plate, CF1522-AP) [1]: 0.27 OD405
- OD405 at 50.00 ng/ml MMP9 (ELISA, streptavidin plate, CF1522-AP) [1]: 0.5 OD405
- Ultimate ELTABA reader value at 3.90625 ng/ml MMP9 (lateral flow) [1]: 413 reader units
- Ultimate ELTABA reader value at 7.8125 ng/ml MMP9 (lateral flow) [1]: 524 reader units
- Ultimate ELTABA reader value at 15.625 ng/ml MMP9 (lateral flow) [1]: 882 reader units
- Ultimate ELTABA reader value at 31.25 ng/ml MMP9 (lateral flow) [1]: 2030 reader units
- Ultimate ELTABA reader value at 62.5 ng/ml MMP9 (lateral flow) [1]: 3830 reader units
- Ultimate ELTABA reader value at 125 ng/ml MMP9 (lateral flow) [1]: 5580 reader units
- Ultimate ELTABA reader value at 250 ng/ml MMP9 (lateral flow) [1]: 6220 reader units
- detectable limit for MMP-9 (lateral flow, sample volume 75 µl) [1]: approximately 4 ng/ml
- reader value at 0.9765625 ng/ml MMP9 (lateral flow) [1]: 338 reader units
- reader value at 0.98 ng/ml MMP9 (lateral flow) [1]: 338 reader units
- reader value at 1.95 ng/ml MMP9 (lateral flow) [1]: 343 reader units
- reader value at 1.953125 ng/ml MMP9 (lateral flow) [1]: 343 reader units
- reader value at 3.90625 ng/ml MMP9 (lateral flow) [1]: 413 reader units
- reader value at 3.91 ng/ml MMP9 (lateral flow) [1]: 413 reader units
- reader value at 7.81 ng/ml MMP9 (lateral flow) [1]: 524 reader units
- reader value at 7.8125 ng/ml MMP9 (lateral flow) [1]: 524 reader units
- reader value at 15.625 ng/ml MMP9 (lateral flow) [1]: 882 reader units
- reader value at 15.63 ng/ml MMP9 (lateral flow) [1]: 882 reader units
- reader value at 31.25 ng/ml MMP9 (lateral flow) [1]: 2030 reader units
- reader value at 62.5 ng/ml MMP9 (lateral flow) [1]: 3830 reader units
- reader value at 62.50 ng/ml MMP9 (lateral flow) [1]: 3830 reader units
- reader value at 125 ng/ml MMP9 (lateral flow) [1]: 5580 reader units
- reader value at 250 ng/ml MMP9 (lateral flow) [1]: 6220 reader units
- reader value at 500 ng/ml MMP9 (lateral flow) [1]: 6730 reader units
- reader value at 1000 ng/ml MMP9 (lateral flow) [1]: 6770 reader units
- sensitivity of the MMP9 standard curves (ELISA and lateral flow) [1]: sensitivity down to 4 ng/ml

Source: patent US20200241008
